Measurements reported in patent US20250074980A1 (BRIGHAM AND WOMEN S HOSPITAL, published 2025).
Where a chain is given by its changes, count along the chain named. In names and notes the source's numbering stands. Several values for one entry are separate records, joined by “and”; a condition that tells them apart may be missing. Equal values may be shown once.

B1: chimeric antibody VH0/Vκ0 (antibody, IgG4, V domains shown)
VH: EVQLVESGGDLVKPGGSLKLACAASGFIFSSHGMSWVRQTPDKRLEWVATISSGGTYTYYPDSVKGRFTISRDNDKNTLYLQMNSLKSEDTAMYYCARHDFDYDAAWFAYWGQGTLVTVSS
VL: QIVLTQSPALMSASPGVKVTMTCSANSSVSYMYWYRQKPRSSPKPWIYLTSNLASGVPARFSGSGSGTSYSLTISSMEAEDAATYYCQQWSSNPPTFGSGTKLEIK
notes: IgG4 (S241P), kappa; also called VH0/Vκ0 (control); Chimeric VH0/Vκ0
B2: VH1/Vκ8 S29A (antibody, IgG4, V domains shown)
VH: B1 VH with V5L, D10G, K13Q, K19R, A21S, T40A, D42G, R44G, D75S, S88A
VL: EIVLTQSPATLSLSPGERATLSCRANSAVSYMYWYQQKPGQAPRPWIYLTSNRATGVPARFSGSGSGTDYTLTISSLEPEDFAVYYCQQWSSNPPTFGQGTKLEIK
notes: IgG4 (S241P), kappa; also called Parent; Parent (VH1/Vκ8 S29A)
B3: CP08H03/CP08F05 (antibody, V domains shown)
VH: EVQLLESGGGLVQPGGSLRLSCAASGFIFSSHGMSWVRQAPGKGLEWVATISSGGTYTYYPDSVKGRFTISRDNSKNTLYLQMNSLKAEDTAMYYCARHDFDYFPYWFAHWGQGTLVTVSS
VL: B2 VL with S91T
notes: IgG4 (S241P), kappa
B4: CP08H03/Vκ8 S29A (antibody, IgG4, V domains shown)
VH: B3 VH
VL: B2 VL
notes: IgG4 (S241P), kappa; also called CP08_H03/Parent VL; CP08_H03/Parental

The binders below were run against T1, His-tagged CEACAM1 (human, UniProt P13688 35-428) (assay: SPR multi-cycle, purified IgG captured).
T1 construct: 45 kDa SPR analyte; also called CEACAM1-HIS; CEACAM1 analyte
T1 sequence: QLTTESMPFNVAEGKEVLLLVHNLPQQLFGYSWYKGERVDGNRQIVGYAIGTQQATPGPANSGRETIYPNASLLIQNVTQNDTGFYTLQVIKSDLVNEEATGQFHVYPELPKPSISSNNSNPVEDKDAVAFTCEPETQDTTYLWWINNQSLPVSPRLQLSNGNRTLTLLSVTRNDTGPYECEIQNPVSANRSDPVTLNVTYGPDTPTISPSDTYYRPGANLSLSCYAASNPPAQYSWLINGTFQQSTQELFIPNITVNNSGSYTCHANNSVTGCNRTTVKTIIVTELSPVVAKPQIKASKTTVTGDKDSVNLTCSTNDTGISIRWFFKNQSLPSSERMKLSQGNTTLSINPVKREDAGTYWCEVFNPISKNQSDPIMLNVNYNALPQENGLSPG
Experimental: Variants CP08H03/Vκ8 S29A and CP08H03/CP08F05 were further analyzed using multi-cycle kinetics analysis, using a Biacore T200 instrument running Biacore T200 Evaluation Software V3.0.1. The purified antibodies were diluted to a concentration of 1 μg/ml in HBS-P+. At the start of each cycle, each antibody was captured on the Protein A surface to give an RL of ˜100 RU. Following capture, the surface was allowed to stabilize. Kinetic data was obtained using a flow rate of 80 μl/min to minimize any potential mass transfer effects. Multiple repeats of the blank (no CEACAM1) and a repeat of a single concentration of the analyte were programmed into the kinetic run in order to check the stability of both the surface and analyte over the kinetic cycles. For kinetic analysis, a two-fold dilution range was selected from 100 to 1.56 nM CEACAM1. The association phase of CEACAM1 was monitored for 150 seconds and the dissociation phase was measured for 150 seconds. Regeneration of the Protein A surface was conducted using two injections of 10 mM glycine-HCL pH 1.5 at the end of each cycle.
The signal from the reference channel Fc1 was subtracted from that of Fc2, Fc3 and Fc4 to correct for differences in non-specific binding to a reference surface, and a global Rmax parameter was used in the 1-to-1 binding model. The relative Kp compared to Parent (VH1/Vκ8 S29A) was calculated by dividing the Kp of the affinity matured composite human antibody variants by that of the Parent on the same chip. The kinetic parameters measured for the interaction of CEACAM1 with affinity matured CEACAM1 antibody variants CP08H03/Vκ8 S29A and CP08H03/CP08F05 are shown in Table 23.

Binder	Kd	koff	kon	relative KD to parent
B1	95 nM and 100 nM	0.045 s⁻¹ and 0.035 s⁻¹	470000 M⁻¹ s⁻¹ and 350000 M⁻¹ s⁻¹	–
B2	420 nM and 490 nM	0.045 s⁻¹ and 0.06 s⁻¹	110000 M⁻¹ s⁻¹ and 120000 M⁻¹ s⁻¹	1
B3	58 nM	0.0078 s⁻¹	130000 M⁻¹ s⁻¹	8.4
B4	99 nM	0.009 s⁻¹	91000 M⁻¹ s⁻¹	4.3

These binders were tested against T2, CEACAM3 on transfected HeLa cells (human, UniProt P40198 35-252) (assay: flow cytometry, HeLa-CEACAM3 transfectants, % staining, stacked bars).
T2 construct: whole, on cells; also called HeLa-CEACAM3; HeLa C3
T2 sequence (looked up): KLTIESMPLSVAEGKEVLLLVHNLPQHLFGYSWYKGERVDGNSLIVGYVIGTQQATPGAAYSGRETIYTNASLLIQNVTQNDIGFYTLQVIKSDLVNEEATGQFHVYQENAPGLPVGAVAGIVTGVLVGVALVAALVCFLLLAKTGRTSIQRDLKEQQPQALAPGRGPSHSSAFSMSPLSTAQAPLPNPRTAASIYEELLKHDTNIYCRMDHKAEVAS
Description: (§1) FIG. 11 illustrates the binding selectivity of different affinity-matured CEACAM1 antibodies. […] HELA cells were transfected with vector alone (HeLa-Neo) or vectors expressing CEACAM1, CEACAM3, CEACAM5, or CEACAM6, respectively, and stained with the indicated antibodies. […] MOPC=mouse IgG1 control antibody. Mouse antibodies as positive control for transfected CEACAM isoforms: Col-1=CEACAM3 and CEACAM5 antibody. 9A6=CEACAM6 antibody. T84.1=CEACAM cross-reactive antibody and T84.66=CEACAM5 antibody. Only 2nd FITC=No primary antibody, only secondary FITC conjugated antibody. […] Data for affinity-matured antibodies 9B3_8H3/Vκ8 S29A, 8H3_9B3/CP08_E05, and 8H3_9C2/CPO08_F05, as well as data for CEACAM8 antibody 80H3 were omitted from the FIG. due to an unusually high background signal.

Binder	binding result
B2	no binding
B3	no binding

These binders were tested against T3, CEACAM5 on transfected HeLa cells (human, UniProt P06731 35-685) (assay: flow cytometry, HeLa-CEACAM5 transfectants, % staining, stacked bars).
T3 construct: whole, on cells; also called HeLa-CEACAM5; HeLa C5
T3 sequence (looked up): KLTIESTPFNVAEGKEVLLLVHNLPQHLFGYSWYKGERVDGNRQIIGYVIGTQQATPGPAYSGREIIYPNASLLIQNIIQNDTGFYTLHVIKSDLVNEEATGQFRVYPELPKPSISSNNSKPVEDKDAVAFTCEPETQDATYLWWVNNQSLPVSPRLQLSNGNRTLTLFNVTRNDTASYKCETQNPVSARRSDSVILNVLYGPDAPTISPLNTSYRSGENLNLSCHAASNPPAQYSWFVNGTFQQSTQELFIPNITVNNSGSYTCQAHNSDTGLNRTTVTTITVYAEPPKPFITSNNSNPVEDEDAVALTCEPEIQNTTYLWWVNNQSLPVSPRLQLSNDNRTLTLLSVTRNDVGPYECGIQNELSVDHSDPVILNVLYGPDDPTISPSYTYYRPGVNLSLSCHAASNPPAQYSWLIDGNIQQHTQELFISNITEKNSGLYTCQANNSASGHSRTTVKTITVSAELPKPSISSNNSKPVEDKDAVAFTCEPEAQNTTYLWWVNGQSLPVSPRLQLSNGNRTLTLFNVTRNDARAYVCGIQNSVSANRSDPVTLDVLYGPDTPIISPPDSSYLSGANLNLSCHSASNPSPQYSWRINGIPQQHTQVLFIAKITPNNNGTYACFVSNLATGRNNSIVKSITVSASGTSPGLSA
Description: as §1

Binder	binding result
B2	no binding
B3	no binding

These binders were tested against T4, CEACAM6 on transfected HeLa cells (human, UniProt P40199 35-320) (assay: flow cytometry, HeLa-CEACAM6 transfectants, % staining, stacked bars).
T4 construct: whole, on cells; also called HeLa-CEACAM6; HeLa C6
T4 sequence (looked up): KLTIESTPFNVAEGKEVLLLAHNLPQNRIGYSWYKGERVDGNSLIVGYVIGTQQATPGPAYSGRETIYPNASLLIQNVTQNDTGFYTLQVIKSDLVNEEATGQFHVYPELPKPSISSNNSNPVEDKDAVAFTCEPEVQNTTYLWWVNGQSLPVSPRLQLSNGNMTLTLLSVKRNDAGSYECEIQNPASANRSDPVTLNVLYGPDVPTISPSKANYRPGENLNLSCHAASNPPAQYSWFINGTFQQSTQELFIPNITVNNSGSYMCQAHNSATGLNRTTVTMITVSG
Description: as §1

Binder	binding result
B2	no binding
B3	no binding
